T1: CD27 protein (His-tagged, Sino Biological Inc. 10039-H08B1) (human, UniProt P26842 20-192)
T1 construct: bought; coated onto ELISA plates; also called human CD27; recombinant protein; not shown: His tag
T1 sequence (looked up): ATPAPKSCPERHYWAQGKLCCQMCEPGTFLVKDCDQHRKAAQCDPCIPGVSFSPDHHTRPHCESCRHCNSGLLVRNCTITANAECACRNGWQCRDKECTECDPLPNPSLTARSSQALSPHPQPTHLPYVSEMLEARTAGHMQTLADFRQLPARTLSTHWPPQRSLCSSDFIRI

T2: CD27 expressed on the cell surface (HT1080_CD27 cells) (human, UniProt P26842 20-260)
T2 construct: whole, on cells; also called K562_CD27
T2 sequence (looked up): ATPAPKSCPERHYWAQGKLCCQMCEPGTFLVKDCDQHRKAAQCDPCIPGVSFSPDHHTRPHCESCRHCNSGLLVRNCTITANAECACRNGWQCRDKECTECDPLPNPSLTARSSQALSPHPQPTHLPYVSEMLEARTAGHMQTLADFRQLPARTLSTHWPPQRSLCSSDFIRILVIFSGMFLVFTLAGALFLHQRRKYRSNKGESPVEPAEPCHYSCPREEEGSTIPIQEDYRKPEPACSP


How the values were obtained:
[1] = biological target: T1, CD27 protein (His-tagged, Sino …); experiment: ELISA on coated His-tagged CD27
[2] = biological target: T2, CD27 expressed on the cell surface …; experiment: cellular binding assay, HT1080_CD27 cells
[3] = biological target: T2, CD27 expressed on the cell surface …; experiment: cell-based or functional assay
Also: test concentration or dose not given here.

| ELISA [abs. corr.] [1] [abs. corr.] | Cellular binding assay [RFU] [2] [RFU] | IL-8, cross-linked by F(ab')2 fragment [abs. corr.] [3] [abs. corr.] | IL-8 [abs. corr.] [3] [abs. corr.] | Binder |
| --- | --- | --- | --- | --- |
| 3.77 | 388 | 1.15 | 0.273 | P018.S.01.A.G04 (antibody, V domains shown, V regions on human Ig constant parts; also called AB27_23) VH: QEQLVESGGGLVQPEGSLTLTCTASGVSFSNNYYISWVRQAPGKGLEWIACVYTGDDDYTYYPSWAKGRFTISKTSSTTVTLQMTSLTAADTATYFCAREILYPADTDSFDLWGPGTLVTVSS VL: AFELTQTPSSVEAAVGGTVTIKCQASESISSRLAWYQQKPGQPPKLLIYRASTLASGVPSRFKGSGSGTDFTLTISDLESADAATYYCQAYVGISSGGYIFGGGTEVVVK |
| 3.37 | 337 | 1.75 | 1.01 | P018.S.09.A.D02 (antibody, V domains shown, V regions on human Ig constant parts; also called AB27_150) VH: QSLEESGGRLVTPGTPLTLTCTASGFSLSKYDMGWFRQAPGKGLEWIGMIGASDRTYYASWVKGRFTISKTSTTVDLRITSPTTEDTATYFCAREYPDARGYYYNLWGPGTPVTVSS VL: ALVMTQTPASVEAAVGGTVTINCQASQSISDLLAWYQQKPGQPPKLLIYDASDLASGVPSRFSGSGSGTEFTLTISGVQSDDAATYYCQQGYSITNVDNVFGGGTEVVVK |
| 3.26 | 323 | 1.67 | 0.675 | P018.S.01.A.D02 (antibody, V domains shown, V regions on human Ig constant parts; also called AB27_11) VH: QSLEESGGRLVTPGTPLTLTCTASGFSLSKYDMGWFRQAPGKGLEWIGMIGASDSTYYASWVKGRFTISKTSTTVDLRITSPTTEDTATYFCAREYPDARGYYYNLWGPGTPVTVSS VL: ALVMTQTPASVEAAVGGTVTINCQASQSISDLLAWYQQKPGQPPKPLIYDASDLASGVPSRFKGSGSGTQFTLTISGVQSDDAATYYCQQGYSITNVDNVFGGGTEVVVK |
| 3.4 | 386 | 1.86 | 0.158 | P018.S.07.A.H04 (antibody, V domains shown, V regions on human Ig constant parts; also called AB27_132) VH: QSLEESGGRLVTPGTPLTLTCTVSGLSLSSYDMSWVRQAPGKGLEWIGYIWSGGSTDYASWAKGRFTISKTSTTVDLKIISPTTEDTATYFCARGYVEFDLWGPGTLVTVSS VL: DPVLTQTPPSVSAAVGGTVTINCQSSQSLYSNNYLSWYQQKAGQPPKVLIWPASSLASGVPSRFKGSASGTQFTLTISELQSDDAATYYCQGTFYDSGWLSAFGGGTEVVVK |
| 3.37 | 397 | 1.47 | 0.463 | P018.S.03.A.D02 (antibody, V domains shown, V regions on human Ig constant parts; also called AB27_47) VH: QSVEESGGRLVTPGTPLTLTCTVSGLSLSSYDMSWVRQAPGKGLEWIGYIWSGGTTDYASWAKGRFTISKTSTTVDLKIISPTTEDTATYFCARGYVEFDLWGPGTLVTVSS VL: DPVLTQTPPSVSAAVGGTVTINCQSSQSLYSNNYLSWYQQKPGQPPKVLIWPASSLASGVPSRFKGSGSGTQFTLTISELQSDDAATYYCQGTFYDSGWLSTFGGGTEVVVK |
| 3.37 | 407 | 1.67 | 0.534 | P018.S.08.A.D02 (antibody, V domains shown, V regions on human Ig constant parts; also called AB27_138) VH: QSVEESGGRLVTPGTPLTLTCTVSGFSLSHYHILWVRQAPGEGLKYIGITLNNGRIDYATWAKGRFTISKTSTTVDLEITSPTTEDTATYFCAKYFVSESYDLWGQGTLVTVSS VL: TAVLTQTPSPVSAAVGSTVTINCQASQSVYNDNWLSWYQQKPGQPPKLLIYGASTLASGVPSRFKGSGSGTQFTLTISDVQSGDAATYYCLGGYKDNSDNVFGGGTEVVVK |
| 3.44 | 307 | 1.17 | 0.395 | P018.S.02.A.F05 (antibody, V domains shown, V regions on human Ig constant parts; also called AB27_35) VH: QEQLVESGGDLVKPEGSLTLTCTASGFSFSSSYYMSWVRQAPGKGLEWIACIDTVDNYTYYASWAKGRFTISKTSSTTVSLQMTSLTAADTATYFCARERIAYNTDYFNLWGPGTLVTVSS VL: AQVLTQTPSPVSAAVGGTVTISCQSSQSLYNYNNLAWYQQKPGQPPKLLIYSASNLASGVPSRFGGSGSGTQFTLTISDLQSDDAATYYCQGYYSGAVYTFGGGTEVVVK |
| 3.38 | 330 | 1.67 | 0.508 | P018.S.04.A.B01 (antibody, V domains shown, V regions on human Ig constant parts; also called AB27_66) VH: QEQLVESGGDLVKPGGTLTLTCTASGFSFSSSYYMSWVRQAPGKGLEWIACIDTADAYTYYASWAKGRFTISKTSSTTVSLQMTSLTAADTATYFCARERIAYNTDYFNLWGPGTLVTVSS VL: AQVLTQTPSPVSAAVGGTVTISCQSSQSLYNYNNLAWYQQKPGQPPKLLIYSASNLASGVPSRFGGSGSGTQFTLTISDLQSDDAATYYCQGYYSGAVYTFGGGTEVVVK |
| 3.37 | 415 | 1.53 | 0.235 | P018.S.04.A.C02 (antibody, V domains shown, V regions on human Ig constant parts; also called AB27_69) VH: QEQLVESGGDLVKPEGSLTLTCTASGFSFSSSYYMSWVRQAPGKGLEWIACIDTVDNYTYYASWAKGRFTISKTSSTTVSLQMTSLTAADTATYFCARERIAYNTDYFNLWGPGTLVTVSS VL: AQVLTQTPSPVSAAVGGTVTISCQSSQSLYNYNNLAWYQQKPGQPPKLLIYSVSNLASGVPSRFGGGGSGTQFTLTISDLQSADAATYYCQGYYSGAVYTFGGGTEVVVK |
| 3.48 | 374 | 1.76 | 0.201 | P018.S.02.A.B05 (antibody, V domains shown, V regions on human Ig constant parts; also called AB27_31) VH: QEQLVESGGGLVQPEGSLTLTCKASGFDFSSSYYMSWVRQAPGKGLEWIACIDTADGYTYYASWAKGRFTISKTSSTTVSLQMTSLTAADTATYFCARERIAYNTDYFNLWGPGTLVTVSS VL: AQVLTQTPSPVSAAVGGTVTISCQSSQSLYNYNNLAWYQQKPGQPPKLLIYSVSNLASGVPSRFGGSGSGTQFTLTISDLQSDDAATYYCQGYYSGAVYTFGGGTEVVVK |
| 3.63 | 382 | 1.67 | 0.304 | P018.S.07.A.B04 (antibody, V domains shown, V regions on human Ig constant parts; also called AB27_116) VH: QSVEESGGRLVTPGTPLTLTCTVSGFSLSSYDMIWVRQAPGKGLEWIGIIYLTDTTYYANWTKGRFTISKTSTTVDLKISSPTTEDTATYFCARHLDTSSGGFYFNLWGQGTLVTVSS VL: AQVLTQTPSSVSAAVGGTVTINCQASQSVYNSKILAWYQQKPGRPPKLLIYDASTLASGVPSRFKGSGSGTQFTLTISGVQSDDAATYFCQGEFTCTSADCIAFGGGTEVVVK |
| 3.59 | 424 | 1.22 | 0.566 | P018.S.06.A.B03 (antibody, V domains shown, V regions on human Ig constant parts; also called AB27_99) VH: QSVEESGGRLVTPGTPLTLTCTVSGFSLSSYDMIWVRQAPGKGLEWIGIIYLTDTTYYANWAKGRFTISKTSTTVDLKISSPTTEDTATYFCARHLDTSSGGFYFNLWGQGTLVTVSS VL: AQVLTQTPSSVSAAVGGTVTINCQASQSVYNSKILAWYQQKPGRPPKLLIYDASTLASGVPSRFKGSGSGTQFTLTISGVQSDDAATYFCQGEFTCTSADCIAFGGGTEVVVK |
| 3.59 | 334 | 1.23 | 0.211 | P018.S.03.A.H04 (antibody, V domains shown, V regions on human Ig constant parts; also called AB27_62) VH: QSLEESGGRLVTPGTPLTLTCTASGFSLSNYSMNWVRQAPGKGLEWIGIINTYGSAYYASWAKGRFTISKTSTTVDLKMTSLTTEDTATYFCARDAGGSTVPWFFDVWGPGTLVTVSS VL: AYDMTQTPASVEVAVGGTVTIKCQASQTISNYLAWYQQKPGQRPKLLIYDASKLASGVPSRFDGSGSGTEYTLTISGVGSADAATYYCQQGYADSNVDNVFGGGTEVVVK |
| 3.37 | 317 | 1.53 | 0.246 | P018.S.05.A.D04 (antibody, V domains shown, V regions on human Ig constant parts; also called AB27_87) VH: QSLEESGGDLVKPGASLTLTCTASEFDFNNNAMCWVRQAPGKGLEWIACIYIGNGGTWYASWAKGRFTISKSSSTTVTLQVTSLTAADTATYFCARGENIAYFILWGPGTLVTVSS VL: DIVMTQTPASVSAAVGGTVTIKCQASQSINSWLSWYQQKPGQPPKLLIYKASTLASGVPSRFKGSGSGTEFTLTISDLESADAATYYCQGYYYYSSSNYASNAFGGGTEVVVK |
| 3.37 | 346 | 1.34 | 0.612 | P018.S.07.A.B03 (antibody, V domains shown, V regions on human Ig constant parts; also called AB27_115) VH: QSVEESGGRLVTPGTPLTLTCTVSGFSLSSYAMGWVRQAPGKGLEWIGDIYGSGSTYYASWAKGRFTFSRTSTTVDLKMTSLTTEDTATYFCARSKGYNYNLWNLWGQGTLVTVSS VL: DIVMTQTPSSVSAAVGGTVTINCQASQNIYTNLAWYQQKPGQRPKLLIYDASDLASGVPSRFSGSGSGTEYTLTISDLESADAATYYCQTYSYSGSSSANPFGGGTEVVVK |
| 3.38 | 252 | 1.4 | 0.067 | P018.S.02.A.H05 (antibody, V domains shown, V regions on human Ig constant parts; also called AB27_40) VH: QSLEESGGDLVKPGASLTLTCTASGIDFSSSSMCWVRQAPGKGLEWIACIDTGSSGRTDYASWAKGRFTLSKTSATTVTLQMTSLTAADTATYFCTRYGDYAGYGYDSFDPWGPGTLVTVSS VL: AQVLTQTPSSVSAAVGGTVTINCQASQNINNWCSWYQQKPGQPPKLLIAYASTLASGVSSRFKGSGSGTQFTLTISGVQSDDAATYYCQQTFDCTDVENVFGGGTEVVVK |

Reference: US20210253725A1 (BIONTECH, published 2021)
